Test results published in paper PMC4361737 (The Journal of investigative dermatology, 2013).

B1: AMACO P2 (domain or fragment)
chain: SSSALCTTADPDCRVEPHPCERRTLETVRELAGNALCWRGSRQADTVLALPCPFYSWKRVFQTHPANCYRTICPGPCDSQPCQNGGTCIPEGVDRYHCLCPLAFGGEVNCAPKLSLECRIDVLFLLDSSAGTTLGGFRRAKAFVKRFVQAVLREDSRARVGIASYGRNLMVAVPVGEYQHVPDLIRSLDSIPFSGGPTLTGSALLQVAEHGFGSASRTGQDRPRRVVVLLTESRSQDEVSGPAAHARARELLLLGVGSEILQAELVKITGSPKHVMVHTDPQDLFSQIPELQRRL
modifications: two unusual glycan chains
B2: Fras1 CSPG (domain or fragment)
chain: TPSLHVNGSLTLGIGSMKPLDFSLLNIQHQDGRVEDLLFHVVSTPTNGQLLLSRNGKEVQLEKAGHFSWKDVNEKKVRFVHSKEKLRKGYFSLKISDQQFFSEPQLINIQAFSTQAPYVLRNEVLHVSKGERATITTQLLDIRDDDNPQDVVVNVLDPPLHGQLLQMPPAPAASIYQFHLDELSRGLLLYAHDGSDSTSDIIVFQANDGHSFQNILFHVKNIPKNDRALRLVTNSMVWVPEGGMLKITNRILKAQAPGVRADDIIYKITHSRPQFGEVVLLMNLPADSPAGPAEEGHHLPDGRMATPISTFTQQDIDDGVVWYRHLGAPTQSDSFRFQVSSATSAQEHLESHMFNIAILPQAPEAPKLSLGTSLHMTAREDGLSVIQPQSLSFVKAESPSGKIIYNITVPLHPNQGIIEHRDRPHSPIQYFTQEDINQGQIMYRPPVAPPHLQEIMAFSFAGLPESVKFYFTVSDGQHTSPEMALTIHLLHSDLQPPAFQVKAPLLEVSPGGRTSLGLQLLVRDAQVVPEELFFQLQKSPQHGMLVKYTAKSSVTMAAGDTFTYDEVERNVLQYVHDGSSAWEDSLEISVTDGLTVTTSEVKVEVSPSENRGPRLAPGSSLSMTVASQHTAIITRSHLAYVDDSSSDPEIWIRLSSLPLYGVLFRSSGPDMDELSGDSNFTMEDINKKNIRYSAVFETDGHSVTDGFHFSVSDMDGNHVDNQVFTITVTPAENPPHIIAFADLITVDEGGRAPLSLHHFFATEDQDNLQDDAVIKLSALPKYGCIENTGTGDRFGPGANSELEASFPIQDVLENYIYYFQSVHESIEPTHDVFSFYVSDGSGRSEIHSINITIERKNDEPPRMTLRPLGVRLSSGVAISNSSLSLQDLDTPDNELIFVLMKKPDHGHLLRRSTASDPLENGTVLDQGSSFTYQDVLAGLVGYLPGDIYMAVDEFRFSLTDGLHVDTGRMEIYIELPSTNIPHLAINRGLQLSAGSVARITEQHLKATDTDSEAGQVVYIMKEDPGAGRLLMAKADNLEQISVRGPIRSFTQADVSQGQIEYSHGPGEPGGSFAFKFDVVDGEGNKLADQSFSIGVLEDKSPPVVITNRGLVLDENSVEKITTAQLSATDQDSKPTELIYRITTQPQLGHLEHVASPGIQISSFTQADLASRNVQYVRSSGTGKQSDAFSFVLSDGLHEVTQTFPITIHPVDDARPLVQNRGMRVQEGVRKTITEFELKAVDVDTEAESITFTIVQPPRHGTIERTARGQRFHQTSSFTMEDIYQNRVSYSHDGSNSLKDRFTFTVSDGTNPFFIIEEGGEEIMTAAPQQFHVDILPVDDGTPRIVTNLGLQWLEYMDGKATNLITKKELLTVDPDTEDSQLIYEVTTGPMHGYLENKLQPGRAAATFTQEHVNLGLIRYVLYEEKIQKVMDSFQFLVKDSKPNV

Tests used:
Fras1 CSPG = target: B2; assay: SPR
AMACO P2 = target: B1; assay: SPR

B1
Kd (Fras1 CSPG): 151 nM

B2
Kd (AMACO P2): 42 nM
